In paper PMC5797668:

Target: HA-M2R-RLuc8 (M2 muscarinic receptor) (UniProt P08172)
Experiment: FRET or BRET

Sequence of UniProt P08172 (P08172 whole entry): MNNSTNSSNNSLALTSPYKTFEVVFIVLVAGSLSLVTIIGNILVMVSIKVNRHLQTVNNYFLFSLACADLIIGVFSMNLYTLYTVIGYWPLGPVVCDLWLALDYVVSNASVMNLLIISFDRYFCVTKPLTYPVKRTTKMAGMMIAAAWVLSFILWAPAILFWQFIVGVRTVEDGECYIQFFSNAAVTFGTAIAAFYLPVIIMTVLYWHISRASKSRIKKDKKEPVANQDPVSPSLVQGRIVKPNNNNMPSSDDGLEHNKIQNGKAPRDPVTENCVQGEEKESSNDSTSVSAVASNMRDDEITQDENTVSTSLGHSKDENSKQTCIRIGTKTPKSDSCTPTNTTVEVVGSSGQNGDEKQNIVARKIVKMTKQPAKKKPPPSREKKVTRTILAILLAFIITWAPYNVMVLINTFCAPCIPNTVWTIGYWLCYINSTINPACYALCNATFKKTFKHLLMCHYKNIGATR

fold increase of basal net BRET (against the A87V base mutant): > 3 fold
Substance: Venus-arrestin-3-Lys139Ile (on the Ala87Val base mutant) (natural protein)
